One may read the Kd as a measure of binding affinity in units of concentration. A high value points to lower affinity. As a reminder, the koff is the rate constant with which the complex falls apart. Low values mean a long-lived complex, high ones a short-lived complex.

The record followed here is publication PMC13079917 (2026).

Sequences and labels used below:
B1: L9 Fab (Fab, V domains shown)
VH: QVKLVESGGGVVQPGRSLRLSCEASGFIFSTYGMHWVRQAPGKGLEWVAVIWFDGSNIYYADSVKGRFTISRDNSKNTVFMQMDSLRAEDTAVYYCHRNFYDGSGPFDYWGQGTLVTVSS
VL: DIQMTQSPSTLSASVGDRVTITCRASQFISRWLAWYQQKPGKAPKLLIYKASSLESGVPSRFSGSGSETHFTLTISSLQPDDVATYYCQEYTSYGRTFGQGTKVEIK

Holding throughout (assay): SPR
In general terms: SPR reads the build-up and loss of mass on a sensor chip optically.

In assay [1] the target is SES-1.
For assay [2], the target named is SES-1. This is another data set of the same source.
Assay [3] concerns the target B1.
Assay [4] deals with B1. The source holds these as a separate data set.

Values joined by “and” are separate entries in the source; they are usually repeats but may differ in a detail not shown here. Equal entries are not always repeated. Where two headings read alike, the source gives them in different places.

For B1, the dissociation constant (Kd) in the assay with SES-1 [1] was 78 nM and 84 nM; in the assay with SES-1 [2], 78 nM.

B2: SES-2 (single epitope scaffold 2) (designed binder)
chain: AVEDALKKAEAAGDEAAIARAEILLARVEEAREILANPNVDPAVGWALLAAVAPEIAALAGGSY
Turning to B2, the dissociation constant (Kd) with L9 Fab [3] is 42 nM. Also, the koff with L9 Fab [4] came out at 0.014 s⁻¹.
